Experimental data reported in US20220135686A1 (SUNSHINE GUOJIAN PHARMACEUTICAL SHANGHAI, published 2022).
Values joined by “and” are separate entries in the source; they are usually repeats but may differ in a detail not shown here. Equal values may be shown once.

Columns and labels:
[1] = target: T1, PD-L1-His (human, UniProt Q9NZQ7 19-238); assay: SPR (Biacore 8K), antibody captured on Protein A/G chip, PD-L1-His injected
T1 construct: extracellular domain; Expressed in HEK293F; also called recombinant protein PD-L1-His; not shown: polyhistidine tag
T1 sequence (Q9NZQ7 19-238): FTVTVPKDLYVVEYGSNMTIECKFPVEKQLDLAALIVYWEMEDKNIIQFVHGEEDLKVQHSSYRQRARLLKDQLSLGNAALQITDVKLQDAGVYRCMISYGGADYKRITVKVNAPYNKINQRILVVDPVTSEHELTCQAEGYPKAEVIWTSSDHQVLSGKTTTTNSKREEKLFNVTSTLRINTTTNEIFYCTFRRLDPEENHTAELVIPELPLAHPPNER
Protocol: (§1) Herein, the affinity of the above antibodies to PD-1 or PD-L1 was determined by Biacore 8K (GE healthcare). On Biacore 8K, the chip coupled with Protein A/G was used to capture various antibodies, respectively, and then the recombinant protein PD1-His or PD-L1-His was injected to obtain the binding-dissociation curve, which was eluted with 6M guanidine hydrochloride regeneration buffer for next cycle. Data were analyzed using the Biacore 8K Evaluation Software.

[2] = target: T1, PD-L1-His; assay: ELISA, coated PD-L1-His
[3] = target: T2, PD-L1-ECD-hFc (human, UniProt Q9NZQ7 19-238); assay: competition ELISA: blocks biotinylated PD-L1-ECD-hFc binding to coated PD1-ECD-hFc
T2 construct: extracellular domain; also called biotinylated PD-L1-ECD-hFc; not shown: Fc segment of human IgG1
T2 sequence (Q9NZQ7 19-238 limits assumed): as the sequence (Q9NZQ7 19-238) above
Protocol: Human PD-1-ECD-hFc was diluted to 2 μg/ml with sodium carbonate buffer (1.59 g Na₂CO₃ and 2.93 g NaHCO₃ dissolved in 1 L of pure water), and added into a 96-well ELISA plate with a multichannel pipette at 100 μl/well, incubated at room temperature for 4 h; washed once with PBST, blocked with PBST containing 1% BSA at 200 μl/well, incubated at room temperature for 2 h; the blocking solution was discarded, the plate was patted dry, and placed at 4° C. for later use. […] OD450 values were read with a microplate reader (SpectraMax 190). Graphing and data analysis were performed using GraphPad Prism6, and IC50 values were calculated.

[4] = target: T2, PD-L1-ECD-hFc; assay: ELISA, coated PD-L1-ECD-hFc
Protocol: (§2) The plates were blocked with PBST containing 1% BSA. The antibodies to be tested were serially diluted, then transferred to the above plates coated with recombinant proteins, incubated at room temperature for half an hour and then the plates were washed; an appropriately diluted HRP-labeled goat anti-human antibody (Fc-Specific) (purchased from Sisgma) was added, incubated at room temperature for half an hour and then the plates were washed; chromogenic solution with TMB as a substrate was added at 100 μl/well, incubated at room temperature for 1˜5 min; 50 μl of stop solution (2M H₂SO₄) was added to stop the reaction. OD450 values were read with a microplate reader (SpectraMax 190). Graphing and data analysis were performed using GraphPad Prism6, and EC50 values were calculated.

[5] = target: T3, PD1-His (human, UniProt Q15116 25-170); assay: ELISA, plate coated with PD1-His 10 ng/well, OD450
T3 construct: extracellular domain; Expressed in HEK293F; also called recombinant protein PD1-His; not shown: polyhistidine tag
T3 sequence (Q15116 25-170): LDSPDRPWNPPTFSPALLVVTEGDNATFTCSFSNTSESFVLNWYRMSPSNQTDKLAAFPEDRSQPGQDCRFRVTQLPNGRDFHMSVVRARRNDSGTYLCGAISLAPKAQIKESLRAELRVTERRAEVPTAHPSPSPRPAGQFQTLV

[6] = target: T4, PD1-ECD-hFc (human, UniProt Q15116 25-170); assay: ELISA, plate coated with PD1-ECD-hFc 10 ng/well, OD450
T4 construct: extracellular domain; also called Human PD-1-ECD-hFc; human PD1-ECD-hFc; not shown: Fc segment of human IgG1
T4 sequence (Q15116 25-170 limits assumed): as the sequence (Q15116 25-170) above
Protocol: as §2

[7] = target: T4, PD1-ECD-hFc; assay: ELISA, coated PD1-ECD-hFc
Protocol: as §2

[8] = target: T3, PD1-His; assay: SPR (Biacore 8K), antibody captured on Protein A/G chip, PD1-His injected
Protocol: as §1

[9] = target: T3, PD1-His; assay: ELISA, coated PD1-His
[10] = target: T2, PD-L1-ECD-hFc; assay: ELISA, plate coated with PD-L1-ECD-hFc 10 ng/well, OD450
Protocol: as §2

| Binder | Kd [1] [nM] | koff [1] [s⁻¹] | kon [1] [M⁻¹ s⁻¹] | EC50 [2] | Kd [8] [nM] | koff [8] [s⁻¹] | kon [8] [M⁻¹ s⁻¹] | EC50 [9] [nM] | binding result [6] | also measured |
| --- | --- | --- | --- | --- | --- | --- | --- | --- | --- | --- |
| Anti-PDL1-HC+609-LC (antibody, human IgG1, kappa, V domains shown, also called hybrid antibody) VH: QVQLQQSGGGLVKPSQSLSLTCTVSGFSLTSYGVHWVRQPPGKGLEWIGLIWSGGGTDYNPSLKSRLTISRDTSKNQVSFKISSLTAADTAVYYCARQLGLRAMDYWGQGTSVTVSS VL: EIVLTQSPATLSLSPGERATLSCRASQSISNFLHWYQQKPGQAPRLLIKYASQSISGIPARFSGSGSGTDFTLTISSLEPEDFAVYFCQQSNSWPHTFGQGTKVEIKR | – | – | – | – | – | – | – | – | no binding (tested: log10(nM) about 2.1 (about 130 nM)) | – |
| mAb1-25-Hu (609) (antibody, human IgG4 S228P, kappa, V domains shown, Humanized anti-human PD-1 monoclonal antibody, human IgG4 (S228P) / kappa) VH: EVKLVESGGGLVQPGGSLRLSCAASGFAFSSYDMSWVRQAPGKRLEWVATISGGGRYTYYPDTVKGRFTISRDNAKNSHYLQMNSLRAEDTAVYFCASPYGGYFDVWGQGTLVTVSS VL: EIVLTQSPATLSLSPGERATLSCRASQSISNFLHWYQQKPGQAPRLLIKYASQSISGIPARFSGSGSGTDFTLTISSLEPEDFAVYFCQQSNSWPHTFGQGTKVEIKR | – | – | – | – | – | – | – | – | – | binding result [10]: no binding (tested: log10(nM) about 2.1 (about 130 nM)) |
| 609-Fab-PDL1-IgG4 (bispecific antibody, expressed with the common light chain Anti-PDL1-LC; also called tetravalent bispecific antibody against PD-1 and PD-L1) heavy: not shown light: EIVLTQSPDFLSVTPKEKVTITCRASQSIGTTIHWYQQKPDQSPKLLIKYASQSFSGVPSRFSGSGSGTDFTLTINSVEAEDAATYYCQQSNSWPLTFGAGTKLEIKRTVAAPSVFIFPPSDEQLKSGTASVVCLLNNFYPREAKVQWKVDNALQSGNSQESVTEQDSKDSTYSLSSTLTLSKADYEKHKVYACEVTHQGLSSPVTKSFNRGEC | 0.608 | 0.00112 | 1.85e+06 | 0.135 nM | 25.7 | 0.00443 | 173000 | 0.421 | – | – |

Continued, in another order:

| Kd [1] [nM] | koff [1] [s⁻¹] | kon [1] [M⁻¹ s⁻¹] | EC50 [2] | Kd [8] [nM] | koff [8] [s⁻¹] | kon [8] [M⁻¹ s⁻¹] | EC50 [9] [nM] | Binder | binding result [6] | also measured |
| --- | --- | --- | --- | --- | --- | --- | --- | --- | --- | --- |
| 0.843 | 0.00138 | 1.63e+06 | 0.12 nM and 0.102 nM | – | – | – | – | Anti-PDL1 (antibody, human IgG1, kappa, V domains shown, Humanized from murine M8; human IgG1 / kappa; also called humanized anti-human PD-L1 antibody; Anti-PDL1-HC+Anti-PDL1-LC) VH: QVQLQQSGGGLVKPSQSLSLTCTVSGFSLTSYGVHWVRQPPGKGLEWIGLIWSGGGTDYNPSLKSRLTISRDTSKNQVSFKISSLTAADTAVYYCARQLGLRAMDYWGQGTSVTVSS VL: EIVLTQSPDFLSVTPKEKVTITCRASQSIGTTIHWYQQKPDQSPKLLIKYASQSFSGVPSRFSGSGSGTDFTLTINSVEAEDAATYYCQQSNSWPLTFGAGTKLEIKR | no binding (tested: log10(nM) about 2.1 (about 130 nM)) | IC50 [3]: 1.37 nM; EC50 [4]: 0.125 nM; binding result [5]: no binding (tested: log10(nM) about 2.4 (about 250 nM)) |
| – | – | – | – | 34.9 | 0.00439 | 126000 | 0.382 | 609-HC+Anti-PDL1-LC (antibody, human IgG4 S228P, kappa, V domains shown, also called hybrid antibody) VH: EVKLVESGGGLVQPGGSLRLSCAASGFAFSSYDMSWVRQAPGKRLEWVATISGGGRYTYYPDTVKGRFTISRDNAKNSHYLQMNSLRAEDTAVYFCASPYGGYFDVWGQGTLVTVSS VL: EIVLTQSPDFLSVTPKEKVTITCRASQSIGTTIHWYQQKPDQSPKLLIKYASQSFSGVPSRFSGSGSGTDFTLTINSVEAEDAATYYCQQSNSWPLTFGAGTKLEIKR | – | EC50 [7]: 0.243 nM |
| – | – | – | 0.14 nM | – | – | – | 5.31 | PDL1-Fab-609-IgG4 (bispecific antibody, expressed with the common light chain Anti-PDL1-LC; also called tetravalent bispecific antibody against PD-1 and PD-L1) heavy: not shown light: EIVLTQSPDFLSVTPKEKVTITCRASQSIGTTIHWYQQKPDQSPKLLIKYASQSFSGVPSRFSGSGSGTDFTLTINSVEAEDAATYYCQQSNSWPLTFGAGTKLEIKRTVAAPSVFIFPPSDEQLKSGTASVVCLLNNFYPREAKVQWKVDNALQSGNSQESVTEQDSKDSTYSLSSTLTLSKADYEKHKVYACEVTHQGLSSPVTKSFNRGEC | – | – |
